# B1: FNCC-silk: recombinant spider silk protein 4RepCT with N-terminal cysteine-looped RGD motif CTGRGDSPAC (SEQ ID NO: 10) (protein)
# chain: GPNSCTGRGDSPACGSASGQGGYGGLGQGGYGQGAGSSAAAAAAAAAAAAGGQGGQGQGGYGQGSGGSAAAAAAAAAAAAAAAGRGQGGYGQGSGGNAAAAAAAAAAAAAAAGQGGQGGYGRQSQGAGSAAAAAAAAAAAAAAGSGQGGYGGQGQGGYGQSSASASAAASAASTVANSVSRLSSPSAVSRVSSAVSSLVSNGQVNMAALPNIISNISSSVSASAPGASGCEVIVQALLEVITALVQIVSSSSVGYINPSAVNQITNVVANAMAQVMG
# modifications: cyclic disulfide loop; Fusion protein; DISULFID (5)..(14)
# What was measured:
# [1] = test system: dermal keratinocytes (NHEK); test: Repopulation assay (wound field); assay type: cell-based, human; details: 0.9 mm wound field, 6 days of culture
# Description: To evaluate the ability of the different silk variants to support repopulation of an open would field, dermal keratinocytes (NHEK) were stained with Oregon green cell trace (Life Technologies) before seeded onto films of FNCC-silk (SEQ ID NO: 13) and WT-silk (SEQ ID NO: 2) at 20 000 cells/cm^2 in 24 well plates. Wound field inserts (CytoSelect™ Wound healing assay, Cell Biolabs) were added into the wells before cell seeding to generate a 0.9 mm wide open would field in the cell monolayer, while keeping the film intact. After 16 h the inserts were removed, and the repopulation process were followed each day and documented by inverted fluorescence microscopy at day 0 (insert removal), day 2 and 4. At day 6 cells were fixed and stained according to the assay protocol, and imaged by inverted bright field microscopy.
# Thus, green-traced cells were seeded at high density into wells with inserts preventing cells to reach a defined part of the silk-film, the “wound field”. After monolayer formation outside the wound field, the insert was removed, and repopulation of the gap was documented during 6 days of culture, thus allowing both migration and proliferation of cells.
# [2] = test system: Normal human epidermal keratinocytes (KC); test: Cell spreading by F-actin staining, keratinocytes; assay type: cell-based; details: 3 h adhesion
# Description: Cells were harvested at passage 3-8, seeded at 3500/cm^2 and allowed to adhere onto films for 20 min, 1 or 3 hours in chamber slides. After gentle washing, cells were fixed with 4% paraformaldehyde, permeabilized with 0.1% Triton X-100 in PBS, and blocked with 1% bovine serum albumin (BSA, AppliChem) in PBS. Secondary antibody was AlexaFlour488 goat anti mouse IgG (H+L), cross adsorbed (Invitrogen), used at 1:500. Phalloidin-AlexaFluor594 (Life Technologies) were used at 1:40 to detect filamentous actin. DAPI was used for nuclear staining. Slides were mounted in Fluorescence mounting medium (Dako, Copenhagen). The stained cells were analyzed using an inverted microscope (Nikon Eclipse Ti) at 4× and 10× magnification. Excitation at 563/45 nm and detection at 625/50 nm was used for red fluorescence, whereas excitation with 387/11 nm and detection at 447/60 nm was used to monitor blue fluorescence. By staining for F-actin, cell spreading and formation of stress fibers in KC after 3 h adhesion were investigated (FIG. 6).
molecule,measurement,setting,value
B1,repopulation of the wound field,[1],"efficiently repopulated the wound field on FNCC-silk, which was almost completely covered with cells at the end of the experiment"
same,cell morphology (F-actin),[2],most cells had a nice spread-out morphology with distinct actin filaments
same,spreading of KC (total cell area in 4× micrographs),[2]; seeding 3 500/cm^2,significantly increased compared to FNSS-silk
same,spreading of KC (total cell area in 4× micrographs),"[2]; seeding 3 500/cm^2, listed as FNCC",significantly increased spreading of KC compared to RGD-film (p<0.05) and WT-film (p<0.001)
